Test results taken from article doi:10.1101/2023.09.08.556349 (bioRxiv, 2023).

How the values were obtained:
[1] = target: SARS-CoV-2 Spike S1-His Tag (HPLC-verified), NR-53798 (SARS-CoV-2 Wuhan-Hu-1, UniProt P0DTC2); assay: ELISA
[2] = target: SARS-CoV-2 RBD-SD1 (Wu), S residues 319 to 591 (SARS-CoV-2 Wuhan-Hu-1, UniProt P0DTC2); assay: ELISA

Binder | binding result [1] | binding result [2]
3548-RBD-15 (antibody, V domains shown) VH: QVQLQESGPGLVKPSETLSLTCTVSGGSVSSYYWSWIRQPPGKGLEWIGYIYYSGSTNYNPSLKSRVTISVDTSKNQFSLKLSSVTAADTAVYYCAKGIYSSSSYWGDPWGQGTLVTVSS VL: not shown | binds | binds
3548-S-2 (antibody, V domains shown) VH: QVQLVESGPGLVKPSQTLSLTCTVSGGSISSGGYYWSWIRQHPGRGLERIGYIYYSGSTYYNPSLKSRVTISVDTSKDQFSLKLTSVTAADSAVYYCARGSRNDLRDFDYWGQGTLVTVSS VL: QSVMTQPPSVSGAPGQRVTISCSGSSSNIGNNYVSWYQQLPGTAPKLLIYGNSNRSSRVPDRFSGSKSGTSASLAITGLQAEDEADYYCQSYNSSLSGLVVFGGGTQLTAL |  | binds
